Tests used:
cross-linking = target: the molecule itself; assay: cross-linking
SEC = target: the molecule itself; assay: SEC

Protein	stoichiometry N (cross-linking)	stoichiometry N (SEC)
human galactose-1-phosphate uridylyltransferase p.F171S (enzyme, UniProt P07902 1-379, looked up) MSRSGTDPQQRQQASEADAAAATFRANDHQHIRYNPLQDEWVLVSAHRMKRPWQGQVEPQLLKTVPRHDPLNPLCPGAIRANGEVNPQYDSTFLFDNDFPALQPDAPSPGPSDHPLFQAKSARGVCKVMCFHPWSDVTLPLMSVPEIRAVVDAWASVTEELGAQYPWVQISENKGAMMGCSNPHPHCQVWASSFLPDIAQREERSQQAYKSQHGEPLLMEYSRQELLRKERLVLTSEHWLVLVPFWATWPYQTLLLPRRHVRRLPELTPAERDDLASIMKKLLTKYDNLFETSFPYSMGWHGAPTGSEAGANWNHWQLHAHYYPPLLRSATVRKFMVGYEMLAQAQRDLTPEQAAERLRALPEVHYHLGQKDRETATIA	2	
human galactose-1-phosphate uridylyltransferase p.F194L (enzyme, UniProt P07902 1-379, looked up) MSRSGTDPQQRQQASEADAAAATFRANDHQHIRYNPLQDEWVLVSAHRMKRPWQGQVEPQLLKTVPRHDPLNPLCPGAIRANGEVNPQYDSTFLFDNDFPALQPDAPSPGPSDHPLFQAKSARGVCKVMCFHPWSDVTLPLMSVPEIRAVVDAWASVTEELGAQYPWVQIFENKGAMMGCSNPHPHCQVWASSLLPDIAQREERSQQAYKSQHGEPLLMEYSRQELLRKERLVLTSEHWLVLVPFWATWPYQTLLLPRRHVRRLPELTPAERDDLASIMKKLLTKYDNLFETSFPYSMGWHGAPTGSEAGANWNHWQLHAHYYPPLLRSATVRKFMVGYEMLAQAQRDLTPEQAAERLRALPEVHYHLGQKDRETATIA	2	
human galactose-1-phosphate uridylyltransferase p.R333G (enzyme, UniProt P07902 1-379, looked up) MSRSGTDPQQRQQASEADAAAATFRANDHQHIRYNPLQDEWVLVSAHRMKRPWQGQVEPQLLKTVPRHDPLNPLCPGAIRANGEVNPQYDSTFLFDNDFPALQPDAPSPGPSDHPLFQAKSARGVCKVMCFHPWSDVTLPLMSVPEIRAVVDAWASVTEELGAQYPWVQIFENKGAMMGCSNPHPHCQVWASSFLPDIAQREERSQQAYKSQHGEPLLMEYSRQELLRKERLVLTSEHWLVLVPFWATWPYQTLLLPRRHVRRLPELTPAERDDLASIMKKLLTKYDNLFETSFPYSMGWHGAPTGSEAGANWNHWQLHAHYYPPLLRSATVGKFMVGYEMLAQAQRDLTPEQAAERLRALPEVHYHLGQKDRETATIA	2	
human galactose-1-phosphate uridylyltransferase p.D28Y (enzyme, UniProt P07902 1-379, looked up) MSRSGTDPQQRQQASEADAAAATFRANYHQHIRYNPLQDEWVLVSAHRMKRPWQGQVEPQLLKTVPRHDPLNPLCPGAIRANGEVNPQYDSTFLFDNDFPALQPDAPSPGPSDHPLFQAKSARGVCKVMCFHPWSDVTLPLMSVPEIRAVVDAWASVTEELGAQYPWVQIFENKGAMMGCSNPHPHCQVWASSFLPDIAQREERSQQAYKSQHGEPLLMEYSRQELLRKERLVLTSEHWLVLVPFWATWPYQTLLLPRRHVRRLPELTPAERDDLASIMKKLLTKYDNLFETSFPYSMGWHGAPTGSEAGANWNHWQLHAHYYPPLLRSATVRKFMVGYEMLAQAQRDLTPEQAAERLRALPEVHYHLGQKDRETATIA		2
human galactose-1-phosphate uridylyltransferase p.L74P (enzyme, UniProt P07902 1-379, looked up) MSRSGTDPQQRQQASEADAAAATFRANDHQHIRYNPLQDEWVLVSAHRMKRPWQGQVEPQLLKTVPRHDPLNPPCPGAIRANGEVNPQYDSTFLFDNDFPALQPDAPSPGPSDHPLFQAKSARGVCKVMCFHPWSDVTLPLMSVPEIRAVVDAWASVTEELGAQYPWVQIFENKGAMMGCSNPHPHCQVWASSFLPDIAQREERSQQAYKSQHGEPLLMEYSRQELLRKERLVLTSEHWLVLVPFWATWPYQTLLLPRRHVRRLPELTPAERDDLASIMKKLLTKYDNLFETSFPYSMGWHGAPTGSEAGANWNHWQLHAHYYPPLLRSATVRKFMVGYEMLAQAQRDLTPEQAAERLRALPEVHYHLGQKDRETATIA		2
